Test [1] addresses Full-length LutR (LutR-FL, amino-acid residues 2–240) (Bacillus subtilis). The test is described as follows: SEC; analytical SEC, Superdex 200 10/300 GL, room temperature, 20 mM Tris-HCl pH 7.5, 250 mM NaCl, 0.02% beta-mercaptoethanol; protein 2 mg/ml (66.7 uM), DNA 50 uM, protein:DNA 2:1.5; with and without 50 mM L-lactate; dimer told for the DNA-bound protein. A general note: Size exclusion chromatography separates by hydrodynamic size, large species first.

Test [2] deals with DNA-binding domain of LutR (LutR–DBD, residues 2–78) (Bacillus subtilis). Description: SEC; analytical SEC, Superdex 200 10/300 GL, room temperature, PBS pH 7.4; protein 3 mg/ml (33.2 uM as printed); alone and with DNA (protein:DNA 2:1).
For test [3], the target named is T1, LutR (LutR-FL, full-length).
T1 construct: full-length residues 2-240, N-terminal His6 and TEV site (pMCSG7-derived vector), His6-tagged protein purified and apparently tag kept; expressed in E. coli BL21(DE3)
The test is described as follows: microscale thermophoresis (label-free). Format: binding, Bacillus subtilis. As to conditions: 8 μM LutR; 20 mM Tris-HCl pH 7.5, 250 mM NaCl, 0.02% β-mercaptoethanol; free protein without DNA; effector. For orientation: MST reads how a fluorescent partner responds to local heating, with and without ligand.

As to “Full-length LutR (LutR-FL, amino-acid residues 2–240) (natural protein)”, the stoichiometry N (as a rule, the number of molecules, sites or subunits per partner or assembly) in test [1] is 2.
In turn, “DNA-binding domain of LutR (LutR–DBD, residues 2–78) (domain or fragment)” yielded a stoichiometry N in test [2] of 2.
With `C[C@H](O)C(=O)O` [L-lactate], in test [3], binding was put at a Kd of 2300 ± 5 µM.

The values are drawn from paper PMC11734750, “Using environment-sensitive tetramethylated thiophene-BODIPY fluorophores in DNA probes for studying effector-induced conformational changes of protein–DNA complexes” (RSC Chemical Biology, 2025).
